Test results published in patent publication US20090304580A1.
pEC50: −log10 of the molar value.

What was measured:
[1] = target: PAM4 antigen (human pancreatic cancer mucin, CaPan1) (human); assay: ELISA on target mucin antigen (FIG. 9)
[2] = target: PAM4 antigen (human pancreatic cancer mucin, CaPan1) (human); assay: size-exclusion elution of the 111In-IMP-288/TF10 complex with excess mucin
[3] = target: IMP-288 di-HSG hapten-peptide, DOTA-D-Tyr-D-Lys(HSG)-D-Glu-D-Lys(HSG)-NH2; assay: size-exclusion elution of 111In-IMP-288 with TF10
[4] = target: PAM4 antigen (human pancreatic cancer mucin, CaPan1) (human); assay: radiolabelled TF10 mixed with mucin, size-exclusion analysis

In the case of PAM4-F(ab')2 (antibody), the pEC50 [1] was 8.74.

“TF10 bispecific ([hPAM4]2 x h679) trimeric DNL construct (bispecific antibody)” gave a pEC50 [1] of 8.85, a percent of TF10-bound peptide eluting at higher molecular weight with excess mucin [2] of 92% and a percent bound [3] of 90%. The immunoreactive fraction bound [4] was 87%.
